Changes are numbered by the printed parent chain.
T1: human B7H3 (CD276) on the cell surface (human, UniProt Q5ZPR3 29-534)
T1 construct: B7H3 on A375 and other B7H3-positive or transfected cells
T1 sequence: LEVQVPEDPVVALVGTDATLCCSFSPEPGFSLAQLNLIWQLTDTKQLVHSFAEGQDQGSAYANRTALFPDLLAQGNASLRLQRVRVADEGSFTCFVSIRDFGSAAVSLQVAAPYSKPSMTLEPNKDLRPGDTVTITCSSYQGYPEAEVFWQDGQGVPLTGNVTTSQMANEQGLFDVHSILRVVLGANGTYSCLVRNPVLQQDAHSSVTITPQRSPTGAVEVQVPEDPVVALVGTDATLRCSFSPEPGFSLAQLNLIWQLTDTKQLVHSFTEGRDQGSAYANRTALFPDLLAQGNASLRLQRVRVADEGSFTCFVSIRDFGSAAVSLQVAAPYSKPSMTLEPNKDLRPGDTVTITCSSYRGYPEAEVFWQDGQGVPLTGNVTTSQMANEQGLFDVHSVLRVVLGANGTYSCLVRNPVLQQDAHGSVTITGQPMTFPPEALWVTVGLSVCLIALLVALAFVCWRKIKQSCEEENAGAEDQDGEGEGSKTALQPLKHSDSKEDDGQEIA

B1: cx5952 (bispecific antibody)
chain 1: EVQLVESGGGEVQPGGSLRLSCAASGFSFSSNVMMWVRQAPGKGLEWVSTIYSSGTGTFYAESVKGRFTISRDNAKNTLYLQMSSLRPEDTAVYYCATSGPVRGWGPRSQGTLVTVKPPGGGGDKTHTCPPCPAPGGPSVFLFPPKPKDTLMISRTPEVTCVVVDVSHEDPEVKFNWYVDGVEVHNAKTKPREEQYNSTYRVVSVLTVLHQDWLNGKEYKCKVSNKALPAPIEKTISKAKGQPREPQVYTLPPCRDELTKNQVSLWCLVKGFYPSDIAVEWESNGQPENNYKTTPPVLDSDGSFFLYSKLTVDKSRWQQGNVFSCSVMHEALHNHYTQKSLSLSPGGGGGGSGGGGGSGGGGGSEVQLVESGGGLVQPGGSLRLSCAASGFTFNTYAMNWVRQAPGKCLEWVARIRSKYNNYATYYADSVKGRFTISRDDAKNTLYLQMSSLRAEDTAVYYCVRHGNFGNSYVSWFAYWGQGTLVTVKPGGGGEVQLVESGGGEVQPGGSLRLSCAASGFTFSSYHMSWFRQAPGKQRELVATSHHGGTTNYAGSVKGRFTISRDNAKNTVYLQMNTLRAEDTAVYYCKADHGYQGRGYWGQGTLVTVKP
chain 2: DKTHTCPPCPAPGGPSVFLFPPKPKDTLMISRTPEVTCVVVDVSHEDPEVKFNWYVDGVEVHNAKTKPREEQYNSTYRVVSVLTVLHQDWLNGKEYKCKVSNKALPAPIEKTISKAKGQPREPQVCTLPPSRDELTKNQVSLSCAVKGFYPSDIAVEWESNGQPENNYKTTPPVLDSDGSFFLVSKLTVDKSRWQQGNVFSCSVMHEALHNRYTQKSLSLSPGGGGGGSGGGGGSGGGGGSQAVVTQEPSLTVSPGGTVTLTCGSSTGAVTTSNYANWVQQKPGQAFRGLIGGTNKRAPGVPARFSGSLLGGKAALTISGAQPEDEADYYCALWYSNHWVFGCGTKLEIK
notes: also called sdAb-Fc-dsFV-sdAb
B2: cx6079 (bispecific antibody)
chain 1: EVQLVESGGGEVQPGGSLRLSCAASGFSFSSNVMMWVRQAPGKGLEWVSTIYSSGTGTFYAESVKGRFTISRDNAKNTLYLQMSSLRPEDTAVYYCATSGPVRGWGPRSQGTLVTVKPPGGGGDKTHTCPPCPAPPVAGPSVFLFPPKPKDTLMISRTPEVTCVVVDVKHEDPEVKFNWYVDGVEVHNAKTKPREEEYNSTYRVVSVLTVLHQDWLNGKEYKCKVSNKALPAPIEKTISKAKGQPREPQVYTLPPSREEMTKNQVSLTCDVSGFYPSDIAVEWESDGQPENNYKTTPPVLDSDGSFFLYSKLTVDKSRWEQGDVFSCSVMHEALHNHYTQKSLSLSPGKGGGGSGGGGSGGGGSEVQLVESGGGLVQPGGSLRLSCAASGFTFSTYAMNWVRQAPGKGLEWVGRIRSKYNNYATYYADSVKGRFTISRDDSKNTLYLQMNSLRAEDTAVYYCVRHGNFGDSYVSWFAYWGQGTLVTVSS
chain 2: EVQLVESGGGEVQPGGSLRLSCAASGFSFSSNVMMWVRQAPGKGLEWVSTIYSSGTGTFYAESVKGRFTISRDNAKNTLYLQMSSLRPEDTAVYYCATSGPVRGWGPRSQGTLVTVKPPGGGGDKTHTCPPCPAPPVAGPSVFLFPPKPKDTLMISRTPEVTCVVVDVKHEDPEVKFNWYVDGVEVHNAKTKPREEQYNSTYRVVSVLTVLHQDWLNGKEYKCKVSNKALPAPIEKTISKAKGQPREPQVYTLPPSREQMTKNQVKLTCLVKGFYPSDIAVEWESNGQPENNYKTTPPVLDSDGSFFLYSKLTVDKSRWQQGNVFSCSVMHEALHNHYTQKSLSLSPGKGGGGSGGGGSGGGGSQAVVTQEPSLTVSPGGTVTLTCGSSTGAVTTSNYANWVQQKPGKSPRGLIGGTNKRAPGVPARFSGSLLGGKAALTISGAQPEDEADYYCALWYSNHWVFGGGTKLTVL
notes: also called sdAb-Fc-FV
B3: cx6080 (bispecific antibody)
chain 1: B2 chain 1 with G408C
chain 2: B2 chain 2 with G466C
notes: also called cs6080; sdAb-Fc-dsFV
B4: cx6081 (bispecific antibody)
chain 1: B2 chain 1 with S394N, G408C, G413A, S441A, N450S, D470N, S488K, S489P
chain 2: B2 chain 2 with K408Q, S409A, P410F, G466C, T471E, V472I, L473K
notes: also called sdAb-Fc-dsFV

Legend:
[1] = target: T1, human B7H3 (CD276) on the cell surface; assay: flow cytometry on A375 cells (B7H3+), anti-human Fc secondary
Method: (§1) Binding of exemplary multispecific constructs containing an antigen-binding domain directed against B7H3 were assessed for binding to B7H3 positive A375 tumor cells or primary T-cells. The constructs were generated containing antigen-binding domain(s) that were either sdAbs or a FABs, and that were positioned either only N-terminal to the Fc or both N-terminal to the Fc and C-terminal to the anti-CD3 binding domain (see FIGS. 30A and 30C and Table E5). Among the various formats of constructs tested included: sdAb-Fc-dsFV-sdAb (cx3072, cx5952) sdAb-Fc-FV (cx6079), sdAb-Fc-dsFV (cs6080, cx6081), MAB-FV (cx5067) and MAB-dsFV (cx6083, cx6084), where the FV represents the anti-CD3 binding domain composed of VH and VL domain pairs and “ds” notes disulfide stabilized via an engineered interdomain disulfide bond.
(§2) Binding was assessed as described above via flow cytometry using a fluorophore-conjugated anti-human Fc secondary antibody. cx3072 bound to A375 cells with high affinity (FIG. 31A) but not to isolated T-cells (FIG. 31B). […] The B7H3 -targeting sdAb containing constructs (cx5952, cx6079, cx6080, and cx6081) bound to B7H3 positive cells with similar affinities (depicted in FIG. 31E), with cx5952 displaying higher maximal binding. cx6079, cx6080 and cx6081 contain two identical B7H3-targeting sdAbs, whereas cx5952, and cx3072 contain two distinct B7H3-targeting sdAb that bind different epitopes. The MAB-FV, cx5067, contains two identical B7H3-targeting FAB domains.

[2] = target: T2, CD3 on the surface of human T cells (human, UniProt P07766 23-207); assay: flow cytometry on primary human T cells, anti-human Fc secondary
T2 construct: whole, on cells; Part of the CD3/TCR complex on cells; also called CD3 epsilon
Method: as §1, §2

T2 sequence (P07766 23-207): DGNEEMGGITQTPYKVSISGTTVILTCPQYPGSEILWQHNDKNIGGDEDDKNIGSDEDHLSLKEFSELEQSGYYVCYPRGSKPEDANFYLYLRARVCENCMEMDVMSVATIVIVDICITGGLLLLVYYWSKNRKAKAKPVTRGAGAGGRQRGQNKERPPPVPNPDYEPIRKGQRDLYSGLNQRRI

Row | Binder | binding result [1] | binding result [2]
1 | B1 | binds | no binding
2 | B2 | binds | no binding
3 | B3 | binds | no binding
4 | B4 | binds | no binding
